The results in this text go back to PMC10953399, “Escherichia coli DNA repair helicase Lhr is also a uracil‐DNA glycosylase”.

The data set addresses LhrD1536A (Escherichia coli MG1655, UniProt P30015 1-1538, D1536A). Kind of data set: EMSA; 5 mM EDTA; 12.5-200 nM protein, 12.5 nM DNA; similar to Lhr; 20 mM Tris pH 7.5, 10% glycerol, 100 ug/mL BSA, 25 mM DTT, 5 mM EDTA, 12.5 nM Cy5-DNA; 37 C 20 min then ice 10 min; 5% acrylamide TBE gel. To be noted: protein: recombinant; tags: His6; label: 5' Cy5; single strand. For orientation: In EMSA bound probe runs differently from free probe, usually more slowly.

B1: Cy5-ssDNA (EMSA) (ssDNA)
DNA: TCGGATCCTCTAGACAGCTCCATGATCACTGGCACTGGTAGAATTCGGC
With B1, the binding result was “binds”.
